We go through 1 protein from paper PMC6181972, “Indoleacetate decarboxylase is a glycyl radical enzyme catalysing the formation of malodorant skatole” (Nature Communications, 2018).

Series [1] deals with the molecule itself. The series can be described thus: SEC; size exclusion chromatography of purified recombinant OsIAD; column and buffer not told in the text shown (Supplementary Fig. 1c); dimer to monomers. Background: In gel filtration, larger molecules generally elute earlier.
Substrate in the series “purified protein”: O=C(O)Cc1c[nH]c2ccccc12
The series is described as follows: purified protein. The conditions noted are these: activated with 100 nM OsIADAE, 1 mM SAM, 0.2 mM Ti(III) citrate, 20 mM Tris-HCl pH 7.5, 0.1 M KCl, 30 °C, anaerobic.

B1: Olsenella scatoligenes indoleacetate decarboxylase (OsIAD) (enzyme, UniProt A0A100YXA1 1-878, looked up)
chain: MQESLVLEMLQTGKTATWPANSGTQDGEGFVDKEVKGVPSTDRTKRMKERFMNAKCKMDMEAPIAYTKAWRMYEGKPLYVRRGLSYKYMLEHLTPVIRPDELITMSKTRYDRGATQVPQFATDFMISFLTQAEDQKDEAKLFSVEGKDEAHTVDEEGWTPVGQLFSIREEEVKPMLEVLEYWKTRCVENVSDEWMKTSFPMYQDYINAKKVGLFPGSGLHAGCDGRWIPAYDVVLGGLNKVIDECKKNIAKTVVTTKDVADKVFFWQGCIYACEGAIAWANNYAKEARRLAEITPEPRKTELLQMAERLERVPAEPPRNFMEAVQALWTAQILIISDSLALGVSPGRWGKLLEPYYEKDLADGVITKEQALEVMEMLRIKFSTEEYITPSLWAAMASSNSFMNLAVGGLDPKTGQCTDNELEDLILQAGINMPTPQPTLSMLLSNKTSDHLALKAAECTKAGNGYPAWFNYDMMVEHNLWCYADEGITMEDARNCALSGCVENGLAGTGHPIAHPAFYNEGKTIELALHEGVDPRTGIKVMDGIKPVESYEDVWNNFVKIREHFMRVYMRYWNEVVACQRDIHPKIMGSIFMHDCVENGRPVDNLGCRYNGSVTLLDSGTVNVVNGLAAMKKLIWEDHKYTYAEFKEAMDNNFGFVLGAEKGNFSMLNQEIDPEKHMKYAQIHRDILNCPKFGNDDDFVDDIFVKVWQDYDRVTGSETTYNGYRWITAALSISAHGPHGRVTGATPDGRLAGVTLCDGILSASPGTDVNGPIALIRSGVKLDPTTFASVQLNMKFHPSAIRGEEGSKNFVDFIRSYFNMGGYHVQFNIVDSKMLRDAQDKPQNYRDLMVRVAGFSAYWNELGKPIQDEVIARTEYDAL
notes: Indoleacetate decarboxylase (glycyl radical enzyme) of Olsenella scatoligenes, UniProt A0A100YXA1; codon-optimized synthetic gene in pET-28a-HT (His6-tag, TEV protease cleavage site, then the construct); also called HT-IAD; A0A100YXA1; source: E. coli BL21 (DE3), purified (TALON, ammonium sulfate precipitation, G25 desalting)
Turning to B1, in series [1], the stoichiometry N (usually a count of units in the complex or per binding partner) stood at 2. In “purified protein”, the Km – broadly, the substrate concentration at which the rate is half of its maximum – worked out at 370 ± 60 µM and the kcat is reported as 2.0 ± 0.1 s^–1.
